Tests used:
cynomolgus C5 = target: T1, cynomolgus C5 (cynomolgus monkey); assay: SPR, pH 7.4, 37C
T1 chain: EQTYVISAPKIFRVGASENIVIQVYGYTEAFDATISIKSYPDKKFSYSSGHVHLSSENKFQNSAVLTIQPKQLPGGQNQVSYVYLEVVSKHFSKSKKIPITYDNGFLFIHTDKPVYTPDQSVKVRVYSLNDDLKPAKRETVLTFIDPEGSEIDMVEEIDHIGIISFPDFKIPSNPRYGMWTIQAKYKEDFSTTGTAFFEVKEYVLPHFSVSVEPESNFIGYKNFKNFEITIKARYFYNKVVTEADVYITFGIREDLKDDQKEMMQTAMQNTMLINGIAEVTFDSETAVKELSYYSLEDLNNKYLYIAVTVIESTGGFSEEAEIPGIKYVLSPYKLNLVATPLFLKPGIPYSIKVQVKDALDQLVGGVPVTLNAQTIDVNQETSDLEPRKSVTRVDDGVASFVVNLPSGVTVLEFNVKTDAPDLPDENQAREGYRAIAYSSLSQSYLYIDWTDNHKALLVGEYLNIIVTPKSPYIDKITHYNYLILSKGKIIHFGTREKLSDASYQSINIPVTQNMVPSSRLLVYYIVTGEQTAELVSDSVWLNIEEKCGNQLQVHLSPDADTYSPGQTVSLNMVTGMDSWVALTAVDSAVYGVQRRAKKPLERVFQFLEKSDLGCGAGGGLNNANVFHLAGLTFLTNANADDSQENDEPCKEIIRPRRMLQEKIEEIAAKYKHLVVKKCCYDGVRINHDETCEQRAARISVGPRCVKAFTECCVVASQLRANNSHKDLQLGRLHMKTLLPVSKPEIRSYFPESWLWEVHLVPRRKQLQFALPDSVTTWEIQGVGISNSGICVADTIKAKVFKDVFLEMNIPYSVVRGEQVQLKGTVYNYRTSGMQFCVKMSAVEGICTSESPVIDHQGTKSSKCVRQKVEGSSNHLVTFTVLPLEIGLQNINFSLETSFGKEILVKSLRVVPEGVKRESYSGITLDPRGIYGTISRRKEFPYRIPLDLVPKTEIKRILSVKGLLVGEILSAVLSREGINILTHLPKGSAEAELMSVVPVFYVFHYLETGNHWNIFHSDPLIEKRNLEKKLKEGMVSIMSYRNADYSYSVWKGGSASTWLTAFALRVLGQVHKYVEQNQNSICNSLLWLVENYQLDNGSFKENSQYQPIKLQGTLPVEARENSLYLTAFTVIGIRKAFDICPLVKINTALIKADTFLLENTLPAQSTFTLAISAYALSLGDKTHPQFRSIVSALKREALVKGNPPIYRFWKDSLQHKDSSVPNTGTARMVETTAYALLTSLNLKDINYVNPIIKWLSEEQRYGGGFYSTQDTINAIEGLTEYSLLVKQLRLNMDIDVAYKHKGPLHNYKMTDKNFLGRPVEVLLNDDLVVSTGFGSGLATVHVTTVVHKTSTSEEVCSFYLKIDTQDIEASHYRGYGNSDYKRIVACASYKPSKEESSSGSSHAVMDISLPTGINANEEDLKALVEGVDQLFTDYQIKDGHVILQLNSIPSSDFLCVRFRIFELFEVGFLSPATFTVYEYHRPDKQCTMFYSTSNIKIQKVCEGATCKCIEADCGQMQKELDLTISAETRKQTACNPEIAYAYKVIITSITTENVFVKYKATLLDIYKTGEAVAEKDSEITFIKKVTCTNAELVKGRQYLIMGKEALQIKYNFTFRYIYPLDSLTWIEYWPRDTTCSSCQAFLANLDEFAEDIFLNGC

C5-K109A = C5-K109A (human); assay: other, Western blot
human C5 [1] = target: human C5 (human); assay: SPR, pH 5.8, 37C
C5-D51A = C5-D51A (human); assay: other, Western blot
human C5 [2] = target: human C5 (human); assay: SPR, pH 7.4, 37C

Kd (cynomolgus C5): 5.54 nM | binding result (C5-K109A): no binding | Kd (human C5 [1]): 430 nM | binding result (C5-D51A): no binding | Kd (human C5 [2]): 15.4 nM
B1: CFA0305 (antibody, V domains shown)
VH: QSLEESGGDLVKPGASLAVTCTASGFSSSSSYYMCWVRQAPGKGLEWIGCIYTGSGATYYASWAKGRFTISKTSSTTVTLQMTSLTVADTATYFCASDGGYVTPTHAMYLWGPGTLVTVSS
VL: DVVMTQTPASVSAAVGGTVTIKCQASQNIGSDLAWYQQKPGQPPRLLIYGASKLASGVSSRFSGSGSGKEFTLTISDLECADAVTYYCQCTFVGSSYGNAFGGGTEVVVK

— patent publication US11597760 (dated 2023)
